The record followed here is US20110076705A1.

This experiment deals with 2D9-binding PAGs (immuno-affinity purified PAGs used as ELISA standards). Description: sandwich ELISA on 2D9-coated plates with immuno-affinity purified PAG standards, log-logit transformation, SoftMax. Background: In an ELISA, binding on a coated surface is turned into a signal by an enzyme label.

B1: monoclonal antibody 2D9 (antibody, mouse IgG1, kappa, V domains shown)
VH: QVQLQQSGAELMKPGASVKISCKATGYIFSNYWMEWVKQRPGHGLEWIGEILPGSDITNYNEKFKDKATFTADSSSNTAYMQLSSLTSEDSAVYYCARAGSGYYGVYYYAMDYWGQGTSVTVSS
VL: DVLMTQTPLSLPVSLGDQASISCRSRQSIVHSNGNTYLEWFLQKPGQSPKLLIYKVSNRFSGVPDRFSGSGSGTDFTLKISRVEAEDLGVYYCFQGSHVPLTFGAGTKLELKR
In general, Kd refers to a measure of binding affinity in units of concentration. With B1, the Kd came to 0.9 nM.
